Assay results from article PMC3633930, “Low Voltage Activation of KCa1.1 Current by Cav3-KCa1.1 Complexes” (PLoS ONE, 2013).

Target: Cav3.2 calcium channel α-subunit, full length, human (human, UniProt O95180 1-2353)
Assay: cell-based or functional assay

Sequence of Cav3.2 calcium channel α-subunit, full length, human (O95180 whole entry): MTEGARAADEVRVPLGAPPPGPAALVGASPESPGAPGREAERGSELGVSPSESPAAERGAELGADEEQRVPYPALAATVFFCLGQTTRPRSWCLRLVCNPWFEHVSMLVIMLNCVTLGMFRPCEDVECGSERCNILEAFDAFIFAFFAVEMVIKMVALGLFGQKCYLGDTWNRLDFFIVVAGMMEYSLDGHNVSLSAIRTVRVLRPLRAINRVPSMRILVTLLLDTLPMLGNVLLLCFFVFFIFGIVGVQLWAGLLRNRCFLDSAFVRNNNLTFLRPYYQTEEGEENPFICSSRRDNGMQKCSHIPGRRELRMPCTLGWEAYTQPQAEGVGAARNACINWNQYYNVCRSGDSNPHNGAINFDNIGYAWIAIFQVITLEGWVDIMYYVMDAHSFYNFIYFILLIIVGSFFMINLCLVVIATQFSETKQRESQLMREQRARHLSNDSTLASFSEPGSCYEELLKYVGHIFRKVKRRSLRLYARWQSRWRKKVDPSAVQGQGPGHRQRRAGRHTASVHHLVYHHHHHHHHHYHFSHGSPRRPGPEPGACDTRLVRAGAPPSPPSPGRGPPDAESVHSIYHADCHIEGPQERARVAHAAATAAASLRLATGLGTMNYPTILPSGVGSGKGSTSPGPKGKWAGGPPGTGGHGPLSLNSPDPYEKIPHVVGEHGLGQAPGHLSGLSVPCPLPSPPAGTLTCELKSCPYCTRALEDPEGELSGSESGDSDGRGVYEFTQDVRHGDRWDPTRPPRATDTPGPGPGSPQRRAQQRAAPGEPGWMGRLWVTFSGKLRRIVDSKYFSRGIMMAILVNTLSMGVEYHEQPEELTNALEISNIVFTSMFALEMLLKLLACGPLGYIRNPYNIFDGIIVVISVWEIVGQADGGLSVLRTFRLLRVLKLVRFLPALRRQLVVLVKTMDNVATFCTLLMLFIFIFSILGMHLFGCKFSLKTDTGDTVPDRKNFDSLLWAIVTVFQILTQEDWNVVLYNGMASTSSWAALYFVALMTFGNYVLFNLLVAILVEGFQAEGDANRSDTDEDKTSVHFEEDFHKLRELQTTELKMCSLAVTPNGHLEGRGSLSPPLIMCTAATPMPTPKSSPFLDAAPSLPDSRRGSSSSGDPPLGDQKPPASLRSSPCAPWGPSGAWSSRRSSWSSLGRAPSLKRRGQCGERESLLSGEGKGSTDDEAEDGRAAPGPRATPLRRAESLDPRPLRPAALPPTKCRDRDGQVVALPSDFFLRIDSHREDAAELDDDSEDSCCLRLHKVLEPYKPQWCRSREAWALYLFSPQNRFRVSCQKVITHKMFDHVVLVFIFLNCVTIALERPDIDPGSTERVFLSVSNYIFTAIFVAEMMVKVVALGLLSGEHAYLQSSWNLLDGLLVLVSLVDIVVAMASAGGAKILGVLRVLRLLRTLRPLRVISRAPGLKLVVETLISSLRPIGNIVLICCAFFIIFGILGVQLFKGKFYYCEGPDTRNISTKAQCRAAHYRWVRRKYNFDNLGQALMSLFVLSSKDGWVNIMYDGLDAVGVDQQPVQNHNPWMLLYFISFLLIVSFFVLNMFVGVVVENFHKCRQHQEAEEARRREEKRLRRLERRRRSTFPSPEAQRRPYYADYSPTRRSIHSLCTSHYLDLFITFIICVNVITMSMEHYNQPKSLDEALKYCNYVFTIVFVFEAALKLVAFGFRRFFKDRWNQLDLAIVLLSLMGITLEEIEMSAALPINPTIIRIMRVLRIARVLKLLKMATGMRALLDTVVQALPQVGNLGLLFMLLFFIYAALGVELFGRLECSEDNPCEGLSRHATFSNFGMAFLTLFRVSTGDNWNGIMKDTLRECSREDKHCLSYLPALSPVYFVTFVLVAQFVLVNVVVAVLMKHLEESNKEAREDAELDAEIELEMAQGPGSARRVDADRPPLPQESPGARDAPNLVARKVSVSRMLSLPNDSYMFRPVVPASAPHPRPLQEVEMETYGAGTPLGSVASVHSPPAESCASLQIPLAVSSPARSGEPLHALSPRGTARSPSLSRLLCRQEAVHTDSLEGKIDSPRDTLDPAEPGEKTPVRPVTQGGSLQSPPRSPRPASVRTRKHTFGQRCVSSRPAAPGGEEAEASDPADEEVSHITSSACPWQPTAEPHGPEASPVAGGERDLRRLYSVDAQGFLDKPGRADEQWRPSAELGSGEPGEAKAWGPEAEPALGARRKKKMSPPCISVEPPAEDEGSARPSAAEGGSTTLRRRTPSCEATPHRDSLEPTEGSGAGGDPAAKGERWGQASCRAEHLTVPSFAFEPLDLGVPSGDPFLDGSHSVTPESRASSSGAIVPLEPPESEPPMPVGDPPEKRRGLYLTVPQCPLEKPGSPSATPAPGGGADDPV

fold increase of the P2/P1 ratio of KCa1.1 current at +40 mV when P2 is preceded by a −30 mV prepulse, whole-cell patch clamp of tsA-201 cells coexpressing Cav3.2 and KCa1.1: 2.7 fold
B1: KCa1.1 potassium channel α-subunit, full length, myc-tagged, human (natural protein)
chain: not shown
